Paper PMC12412624, “Engineered Cas12j‐8 is a Versatile Platform for Multiplexed Genome Modulation in Mammalian Cells”
Substitutions are numbered along the chain they refer to.

Tests used:
[1] = test system: T1, dCas12j-8 E258R+D527R E258R;D527R;D369A;E567A;D658A (bacteriophage (metagenome)); details: HEK293T cells; panel 1d (compare within a panel only); scale: mean GFP / mean GFP of wild type, printed, no background subtraction
T1 sequence: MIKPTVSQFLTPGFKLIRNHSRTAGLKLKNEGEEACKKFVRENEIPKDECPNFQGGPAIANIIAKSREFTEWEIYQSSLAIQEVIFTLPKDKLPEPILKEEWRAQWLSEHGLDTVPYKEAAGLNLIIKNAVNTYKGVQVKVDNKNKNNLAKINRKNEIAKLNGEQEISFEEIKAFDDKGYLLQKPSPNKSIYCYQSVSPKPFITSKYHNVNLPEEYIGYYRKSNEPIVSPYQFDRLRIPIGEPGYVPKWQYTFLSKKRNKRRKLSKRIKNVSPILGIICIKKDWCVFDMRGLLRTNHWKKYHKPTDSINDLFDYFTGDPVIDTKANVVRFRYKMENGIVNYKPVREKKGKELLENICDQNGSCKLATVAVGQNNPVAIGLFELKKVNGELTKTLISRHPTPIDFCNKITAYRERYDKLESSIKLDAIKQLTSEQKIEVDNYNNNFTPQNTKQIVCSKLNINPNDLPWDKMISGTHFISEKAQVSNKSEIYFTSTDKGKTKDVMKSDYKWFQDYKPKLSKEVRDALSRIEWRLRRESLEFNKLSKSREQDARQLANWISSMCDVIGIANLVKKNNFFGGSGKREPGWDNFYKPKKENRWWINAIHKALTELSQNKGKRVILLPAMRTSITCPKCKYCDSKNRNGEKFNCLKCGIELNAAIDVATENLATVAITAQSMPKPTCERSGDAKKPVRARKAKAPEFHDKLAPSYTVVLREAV

[2] = test system: T2, dCas12j-8 E419R E419R;D369A;E567A;D658A (bacteriophage (metagenome)); details: HEK293T cells; panel 1c (compare within a panel only); scale: mean GFP / mean GFP of wild type, printed, no background subtraction
T2 sequence: T1 sequence with R258E, E419R, R527D

[3] = test system: T3, dCas12j-8 E101R E101R;D369A;E567A;D658A (bacteriophage (metagenome)); details: HEK293T cells; panel 1c (compare within a panel only); scale: mean GFP / mean GFP of wild type, printed, no background subtraction
T3 sequence: T1 sequence with E101R, R258E, R527D

[4] = test system: T4, dCas12j-8 WT D369A;E567A;D658A (bacteriophage (metagenome)); details: HEK293T cells; panel 1c (compare within a panel only); scale: mean GFP / mean GFP of wild type, printed, no background subtraction
T4 sequence: T1 sequence with R258E, R527D

## CUUUCAAGACUAAUAGAUUGCUCCUUACGAGGAGACACUCCCUAUCAGUGAUAGAG / TTNACTCCCTATCAGTGATAGAG / CTCTATCACTGATAGGGAGTNAA [TetO]
[1]
  binding signal: 2.83
[2]
  binding signal: 0.894
[3]
  binding signal: 0.711
[4]
  binding signal: 1
